The data set can be described thus: amyloid nucleation score (Sup35N fusion, yeast selection) (log enrichment); library NNK2; higher = more nucleation; inactive = no reads after selection. The procedure, abridged:
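Growth for 7 days at 30°C on medium lacking adenine and uracil followed a 24-hour induction with 100 μM copper sulfate of psi-negative yeast expressing peptides of 20 random codons fused to Sup35N. Input and output plasmid inserts were sequenced with Illumina, and sequences with under 100 input reads were excluded. Nucleation score is the DiMSum log enrichment of output over input reads, centred on the mode score of non-aggregating sequences.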

± gives the uncertainty stated by the source.

For METAPTLNINVSDSQRPNVW, the amyloid nucleation score came to 0.71 ± 0.53.
The same measure for SWSCMTRW: 5.464 ± 0.049; for VIHSPQMLSWSSHGNARFSK: 0.628 ± 0.33; for GGMVVPGKYRDRGY: -0.227 ± 0.26.
With DCECGLNSWKKVT the entry was “inactive”.
Turning to FFDYIGRYYNLKH, the amyloid nucleation score result was “inactive”.
Consider PTMEPVVHITLDCVYKDF, for which the amyloid nucleation score entry was “inactive”.
The same measure for SFWISVGLWFWLGEYMGRNE: 2.17 ± 0.12.
As for TVWVIVERYMGFLYFLYNTS, the amyloid nucleation score result was “inactive”.
The same measure for SIAHGQTSQNSTEWARVDG: 0.387 ± 0.29; for NGVQKVVCQGTRLGCVLGLD: 0.131 ± 0.45; for CHSRLLEYGENCNRIEYCLC: -0.459 ± 0.27.
With VDLRQCENLHRPWRFRRSGK the figure was 1.4 ± 0.2; with RSCFPMIIALVRFDVFGDCY, -0.339 ± 0.31.
AAWNRPHMERRFSYEGYYIV yielded an amyloid nucleation score of -0.508 ± 0.63.
The same measure for LLLGTSVDVFL: 0.07 ± 0.74; for MLLSCYFVVNE: 6.37 ± 0.072.
The same measure for TCIYSYRRNSCRIGCLRSWR: 0.425 ± 0.6; for YKLAFQSYIDGLLIL: “inactive”; for VSSPLAWKFLVNKICISDGG: “inactive”.
With LIVVKCLSRRYCFCLLSVVV the figure was 0.303 ± 0.32.
The substance YPVCGCRLSRLVHNSTVDKV gave an amyloid nucleation score of 0.639 ± 0.46.
The same measure for KWSFF: 4.34 ± 0.081; for SCYRFSRSRS: -0.359 ± 0.49; for NPGETDQRQSWSCSDCPAFS: 1.51 ± 0.35.
With VFTFVKERQSTWVVSFPQFL the figure was 4.68 ± 0.066.
The same measure for TDCVKTRPCGRLVKIPLYME: -0.708 ± 1.1; for IPYGMSWTWSH: -0.565 ± 0.3.
Turning to NMPEFC, the amyloid nucleation score came to 0.283 ± 0.21.
With TDVAY the figure was 0.258 ± 0.2; with FFMYHAVL, 1.02 ± 0.34; with WWFLIYLSSYRGNRCILVWF, -1.98 ± 0.44.
With LLNFMCIYYEWFQRSAEHAT the figure was -0.605 ± 0.76; with TTICVFNVGESHMRLSGSVG, -0.053 ± 0.28; with ESNMSKLAFRRDTVF, “inactive”.
The same measure for VWYLFKNAFHMVFKTEWYEG: -1.52 ± 0.54.
On to NKSSLRVCRPLSWNMSMVSN, for which the amyloid nucleation score stood at 0.593 ± 0.44.
Consider FALLPCDKVCLGVREWFNFG, for which the amyloid nucleation score entry is “inactive”.
With SSFLATVSVQCNDRYNSHRS the figure was 4.26 ± 0.064; with YKSVERTASRMIQIEVFWEY, “inactive”.
Substance RFDWRFCVVNRPGGKWLVVR had an amyloid nucleation score of 0.824 ± 0.29.
Consider YCKFYWNHNVYCLVALWRLW, for which the amyloid nucleation score is -0.149 ± 0.79.
Take CFVYLDLLYMEMMYHRQVAY: the amyloid nucleation score was -0.552 ± 0.34.
The same measure for CDGTLCWKPGWYGDQKFERR: 1.32 ± 0.36; for ADKCYGYASACVFSGSLVC: 0.028 ± 0.56.
Substance IYVFGIGTYMVTQFLCSTTI gave an amyloid nucleation score of 6.909 ± 0.031.
Regarding HLMCESGRVFWKD, the amyloid nucleation score came to 0.015 ± 0.31.
The same measure for RSDSVYSIGCSNENRQSGRA: 1.21 ± 0.2; for LTMLPDNVPTKALFSYLSVT: -1.24 ± 0.76; for LHIRVLSQVRLCDDWRASAS: -0.016 ± 0.33.
For the substance RMVRGLAFGDFWASSMRKYP, the amyloid nucleation score was 0.241 ± 0.33.
The same measure for KPWVTLLVCCSVYRFFMYYA: 4.96 ± 0.081; for FPGLDGNQMFRLC: 0.42 ± 0.66.
The same measure for LCSLDSMPHSYITCSAKRLI: -0.443 ± 0.3.
The same measure for NSFVAIKCIV: -0.023 ± 0.33.
On to CKLIFYTYPDYIYILIVKSS, for which the amyloid nucleation score result is “inactive”.
With CLLWVAQYVQAMEGVALSVG the figure was 1.5 ± 0.21.
Take VKNCDWGIYIILSGFMRVTR: the amyloid nucleation score is -1.27 ± 1.1.
As to DTSAIFSYALLL, the amyloid nucleation score came out at 4.56 ± 0.058.
With SCMSFVLKFPQTLSVWVCWG the figure was 4.97 ± 0.072; with PSGFVVLGSLCGMIFVRVTK, -0.974 ± 0.49; with PGSVWFSLTSMHE, 0.623 ± 0.66.
With VFYLSFIFLLWLSGKYLGHW the figure was 1.25 ± 0.1; with RLLRQGDFGVTENRFLFRDI, -0.502 ± 0.79; with MGQLDGKACSICRSLVIIVY, 2.23 ± 0.073.
The same measure for GAGLRCLFGNSGYGERCVTM: 0.82 ± 0.44; for MIWNCTVFFLGDGAPLCGLC: 8.5 ± 0.064; for IEGDLFVRLRLRKLSQLFKA: 0.196 ± 0.77.
For VRDLTCSNNITILFMHW, the amyloid nucleation score is 6.13 ± 0.079.
The same measure for WRVSSSI: -0.706 ± 0.76; for TGNVTGRLFWNVFVRYSGVL: -0.03 ± 0.55; for FYSSPILM: -0.927 ± 0.41.
On to SSFAARRR, for which the amyloid nucleation score turned out to be 0.276 ± 0.28.
In the case of CRLRVDVGECDRGLYALRVW, the amyloid nucleation score came out at 1.21 ± 0.48.
Turning to DDFGCLYFYILYS, the amyloid nucleation score entry was “inactive”.
Consider FFFDDSKVYQNWEEDVEGNQ, for which the amyloid nucleation score was -0.389 ± 0.34.
With FEIGSV the entry was “inactive”; with VEFSLSCHNMIFYVLD, 6.762 ± 0.028.
With NQLLTVSWYSL the figure was 2.76 ± 0.091.
The same measure for KGGAARSVWISMCFFKAFYR: -0.358 ± 1; for LLNYTRGACCDRTRVQFSTT: -0.079 ± 0.76; for ATIWCCRVKGQVGSFNL: 0.868 ± 0.14.
CHIGN: the amyloid nucleation score entry is “inactive”.
With WGSISNIFYLLRVLYCLSMS the figure was 1.79 ± 0.26; with VRCEESWGDIICD, “inactive”.
With SACIILI the figure was 1.65 ± 0.15.
The same measure for SCRDNIRGQRLGHHAGLWSR: 0.479 ± 0.2.
For VVRAFTDKPRSVSDSLGVIN, the amyloid nucleation score was 1.16 ± 0.18.
With TYLDGAYLLFDSARFAKAVK the figure was 0.144 ± 0.24; with RTVLFAGCAVSNEMFCEKLV, 3.68 ± 0.077; with DSSGFCMMVYYIQ, -0.365 ± 0.76.
With KVLLMTRT the figure was -0.113 ± 0.45.
The same measure for PSYDVCSMDCLDEKDGFMWL: 0.25 ± 0.62.
FFWFQTSLDTPWKEVILVYI returned an amyloid nucleation score of -0.719 ± 0.79.
With VDAVLND the figure was 0.432 ± 0.29.
With GPLLVIWVRTLGRELG the figure was 0.841 ± 0.26.
The same measure for RDGYRSGYAESMVGVWFRLK: 0.662 ± 0.81; for CGVASSHFDGLLNR: 2.58 ± 0.12.
Substance SFLFMKSTIRFIEL yielded an amyloid nucleation score of -1.34 ± 0.36.
The substance SLDIDQTVRFTTK registered an amyloid nucleation score of 5.618 ± 0.036.
With YVAAGLWVMWTGALKMRQAG, the amyloid nucleation score stood at 0.954 ± 0.66.
The same measure for IWDEQCRTLCGARCNDVSAW: 0.799 ± 0.3; for PFGGVEAFAGRMWWVEHSYW: 0.009 ± 0.55; for HWMVGKV: 0.164 ± 0.28.
The same measure for VSVVFNARPHRDSHNPSAER: 6.129 ± 0.054; for YGFCAFTHSC: -0.554 ± 1.
With PEFLNKMQTTIYDKDCYMDR the entry was “inactive”; with VYKYNISFLEPKHESQAWNK, 0.042 ± 0.63.
IVKFKKRVDRHLSSGDQLVR registered an amyloid nucleation score of 1.19 ± 0.61.
The same measure for FYLRGHACDSSWSNLVVGLW: 4.8 ± 0.083; for SNFSMVCAVCV: 0.454 ± 0.34; for VIVVRNQRKFVTSDLPLKVC: 1.04 ± 0.35.
The same measure for WNAALKYKAHVGIDVSRCVP: 0.535 ± 0.33; for SWVRVDHLNDMYRFELK: 0.286 ± 0.46.
With YILNMFKETLDVLVLKRNCF the figure was -1.18 ± 1.1; with CVLDLNVMDGGLL, -1.26 ± 0.38.
In turn, MSYGNAYNTPKCDKHSVIPY came in with an amyloid nucleation score of 0.738 ± 0.37.
With DNVLYHPDGFGMISALTGVV the figure was -0.753 ± 0.45; with KRSLLQKLCC, -0.421 ± 0.61.
The same measure for IFFLSNLKRKPDDRGLVHKN: 2.57 ± 0.14; for ALYMDVRL: 1.53 ± 0.19.
The same measure for ICIDRNRI: 0.396 ± 0.34.
SCFSIFMLIPSSATAIFSQI: the amyloid nucleation score was -1.27 ± 1.
The same measure for TAHGAQWVPDWWEPVTSAYW: 1.21 ± 0.21; for VRNGMANKGNDGRAAWEVNG: 1.25 ± 0.21; for VFGACGTM: 0.606 ± 0.32.
The same measure for DMWMRVILSDNGNQEVPK: -0.293 ± 0.27.
The same measure for GFDLAWSWIPFSRWFALLVN: -0.486 ± 0.56; for ARSPCCLYQMHIYFAKAFAD: -0.599 ± 0.33; for WRALPKYGYCLSLGVYEETR: -0.102 ± 0.55.
Substance ILVHVSFDNRFN displayed an amyloid nucleation score of 6.06 ± 0.077.
The same measure for VARHIHLTRSRNNFSSGRKA: 0.958 ± 0.4.
With SCIDCLRLSLLSGCIHWVNY the figure was 0.509 ± 0.8; with WVASSSKQRTHLCSGVKWSV, 0.539 ± 0.56; with FVSGDHGTVWYIT, -0.036 ± 0.48.
The same measure for PHVFYCSILV: “inactive”; for YLLVLFGSGTYITPTLLRIN: -1.55 ± 0.49.
ICETGMGSKVGHEPVTAQ showed an amyloid nucleation score of 0.598 ± 0.57.
The same measure for VSNPSSQMNC: 0.042 ± 0.16.

Source of the values: the supplement of paper PMC12042874.
